Measurements published in the RNAGym collection of RNA variant scans (doi:10.1073/pnas.2313332121).

B1: TPR t1 (parent)
chain: GACCAAUCUGCCCUCAGAGCUCGAGAACAUCUUCGGAUGCAGAGGAGGCAGGCUUCGGUGGCGCGAUAGCGCCAACGUCCUCAACCUCCAAUGCAUCCCACCACAUGAUGAUGCCUGAAGAGCCUUGGUUUUUUG

Variants of: B1
Assay: polymerase ribozyme fitness, log enrichment relative to wild type (log ratio); higher = more active; in vitro selection for triplet polymerase activity
Summary of the method: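 Input and output libraries were sequenced on Illumina after a single in vitro selection round, run in triplicate on PCR-built, transcribed mutant libraries of each subunit of a heterodimeric triplet polymerase ribozyme. Selection annealed libraries to a biotinylated primer, the partner subunit and triplets, incubated them frozen at −7 °C, then gel-excised extended constructs for streptavidin-bead capture and RT-PCR. Genotypes with ≥10 input reads and ≥1 read per output were kept. Fitness is the logarithm, taken in base 2, of genotype enrichment divided by wild-type enrichment, using inverse-variance-weighted replicate averages.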

| Variant | polymerase ribozyme fitness (log ratio) |
| --- | --- |
| A16G G69C A84G C102A C114U C115A | -6.44 |
| G17A G36U G120C C123U C124G | -1.43 |
| G17C U21A G39A U112C C115A | -1.1 |
| A18C C20U A84C U96C G117U G127A | -5.53 |
| G17U A68G C73G U112C | -5.21 |
| G17U A27U G42A A43U C85U C124A U133A | -5.61 |
| G17A G61A C73U A75C | -3.99 |
| A18U A43U C101G | -3.57 |
| A18C G42A G44U C53G G93A | -4.64 |
| A18C G45U | -3.69 |
| C15U G63U U78A G127C | -4.1 |
| A18G C49G U87A C89A U116C A118G | -4.85 |
| A18U C88U | -2.25 |
| A16C U87A C123G G128C | -1.81 |
| A16U U116G | 0.557 |
| A18C A37C U112C | -1.3 |
| A18C C79G A90U G113A | -4.1 |
| G17U G48A A50U G60A | -3.1 |
| C15U G61C U125A | -2.92 |
| C15U G69U | -1.38 |
| G17A A18C C114G C124A G135U | -5.65 |
| C15U G69C C73G C94A A111C | -6.09 |
| C15U U32C C89A A119G G128C | -3.29 |
| A16U C49A G63C | -1.43 |

| Variant | polymerase ribozyme fitness (log ratio) |
| --- | --- |
| A16G U81A | -2.36 |
| A16U G23A G36U A46C G47C C73A C114U U129G U132A | -7.62 |
| A18C G58U G69C C89U U106A G110U | -4.7 |
| G17U C20G G52A C73A G113A A119G | -1.98 |
| G17U C34A U112A G120C | -6.92 |
| A18C G52C U96C | -3.84 |
| A16U G52A C72U | -1.31 |
| G17A G42U U106A | -5.21 |
| A16G A46U C124U | -0.673 |
| A18C A50C G60A A84G U92A | -6.2 |
| G17C A90C A121C | -1.46 |
| A18G C72G A84G U92A C115A | -5.47 |
| C15U G61C | -2.32 |
| C15U G61U | -0.638 |
| G17U A24G U32C G61C G117C | -6.76 |
| A18C C88U A95G | -2.41 |
| A18C A118U | -0.81 |
| G17C C73U | -4.07 |
| A18U C85G | -3.16 |
| G17A U55A G77U C115U U125A | -0.205 |
| A18G G69A C88G G113C | -5.21 |
| A18U C62G A121U | -2.71 |
| C15U G63A C79A U112G | -5.66 |
| G17A A50U G51U C114G | -6.63 |

| Variant | polymerase ribozyme fitness (log ratio) |
| --- | --- |
| A16G A68G | -4.75 |
| G17A G69C U112A | -4.29 |
| A16U G61A U81A C88G | -3.75 |
| G17A A41U A84C | -4.63 |
| G17U C49G C64U U131C | -2.89 |
| G17A C49G A83U U87C G117A | -3.65 |
| G17A G47U | -4.84 |
| A16G A41C A50U U81A U106A | -2.3 |
| A18U C104A | -4.32 |
| A16U C73G | -2.59 |
| A18C A29G G61A | -2.27 |
| G17A A37U U54C C70U | -4.08 |
| A18G C22A G42C U54G G63C U112G | -5.39 |
| A16G G61U A66U U81A U106A U116C | -0.459 |
| A18C G63A U92G U112C G117A | -4.55 |
| A18U C76A | -3.36 |
| A16U C72G G122A | -2.16 |
| A16C U32G G69A U109C G135A | -6.26 |
| A18G G58A C79G A118G | -7.2 |
| G17A A43G G127A | -4.18 |
| A18U C94G A121C U126G | -5.02 |
| A18C C56G U59A A100U A111G G127C | -3.88 |
| A16U G17C C123U U126C | -2.6 |
| G17A G39U C49G U78C G117U | -5.4 |

| Variant | polymerase ribozyme fitness (log ratio) |
| --- | --- |
| A16U G52U G69A C76U U78C A121C | -3.43 |
| A16G C40A C49G | -3.32 |
| A16G C22A G47U G48U C64U C123G | -6.67 |
| A16U U59A C124A | 1.46 |
| A16G G71U C123U | -0.364 |
| A16U C49A G69U | -1.01 |
| C15U G57U C72G U81G | -2.79 |
| G17A C53U U54A C64U U92G | -4.58 |
| A18U A29U U54G C89G C114G | -3.41 |
| A16G A43G C124U U125A | -1.48 |
| A18C G42U U54C C82G | -2.51 |
| A18U A43C C49U | -3.92 |
| A16U G47A C56G C86U C101A A121C | -0.796 |
| A16G C49A C73U | -0.946 |
| G17U G45U G61U U81A | -3.74 |
| A16C A50G | -2.32 |
| A18C C56G | -2.15 |
| A16U G60C G117C U125A | -4.08 |
| C15U U54C C73U G113A C124G | -0.579 |
| A18G A66U G113A U126C U133A | -4.19 |
| A18G G57U G69A C85U G120U | -7.29 |
| G17C G48A C80U A83C A95G C123G | -6.14 |
| A18C G42U G69C | -3.2 |
| C15U G57A G117U | -3.3 |

| Variant | polymerase ribozyme fitness (log ratio) |
| --- | --- |
| A18C A43G C85G U96G | -4.07 |
| A16G C49G C56G | -4.65 |
| A16G C76G G117A C123G G135U | -1.57 |
| A16G A74U | -1.36 |
| C15U G71C C80G | -6.22 |
| A16U U32C U38G G71A C114G A121U U133A | -6.3 |
| A16C C49A C94A C124A | -0.594 |
| G17C A75G C101U | -5.29 |
| A16U U78C | -2.22 |
| G17C C98U C102A A111G A121G G122A | -6.68 |
| A18C C88U A90G C114G | -0.417 |
| G17U C34G A50G | -7.24 |
| G17U G48U C70U U78C U87G U112A | -4.19 |
| A16G U55A C102A A121U | -0.698 |
| G17C C49G C62A | -7.71 |
| A18C G39C A41U C123U | -2.25 |
| A18G C20A C79U G117C | -3.24 |
| G17A C115U U125A | 0.421 |
| A16C U38G A46U C56A U59A U87G | -4.62 |
| A18G G60A C88U A90C | -4.63 |
| A18G U78A C86A C97A C102U U109A G113C | -6.86 |
| G17A G61U | -2.6 |
| G17A G61A | -2.34 |
| A16C G58C | -2.65 |

| Variant | polymerase ribozyme fitness (log ratio) |
| --- | --- |
| A18U C20A C97G U109A U116A | -5.44 |
| A16G G52A C56A G69U | -1.69 |
| A18C G45A C49G G61A U133A | -4.6 |
| A16U G117C G120A | -4.52 |
| A18C G47U A111U U129G | -7.66 |
| A16U G63C G120U U125C | -0.937 |
| G17U G47A G71C | -3.03 |
| G17U G47A G71U | -3.24 |
| G17U C53G U96C U126C | -4.06 |
| A18G C56G A103C C115G U129G U130C | -6.47 |
| G17U A84U U96G G128U U130C | -3.54 |
| C15U G61A C89A A111U | -6.53 |
| A16U C85U | -2.77 |
| A18C U92G A121G | -0.659 |
| A16U C82U | -2.17 |
| G17U G135U | -3.6 |
| A16U G42C A43G G45U C73A U129A | -3.44 |
| A16U A37C C53A A91G U112A | -1.42 |
| A18U A41C | -2.34 |
| G17A C88U U133A | -3.95 |
| G17U A46C C62U U112A C115A U132G U134A | 0.56 |
| A18C C104U C123G | 0.269 |
| C15U G52A G58A C88U C115U | -4.34 |
| A18G G19A C88U A90G | -1.41 |

| Variant | polymerase ribozyme fitness (log ratio) |
| --- | --- |
| A16U C79U C86A G120U G128A | -4.89 |
| A18U C85U C94G | -5.59 |
| A16U G58A C72U | -1.69 |
| G17A G48A C102A A119U C123A | -6.09 |
| G17U G42U G128A | -5.51 |
| A16U C40G C56U U112G | -0.767 |
| A16G G69C A91U G113U | -3.01 |
| A18U A43C A121C | -0.924 |
| A18U C123G U129A | -1.83 |
| A16C G57U G71U U87A G127C | -6.26 |
| G17U C20A C49U | -5.73 |
| G17A C40A A43U | -5.48 |
| A16C G52A A119G | 0.273 |
| G17U C34G A68U C72G C85A C123A | -7.76 |
| A16U C70G | -2.98 |
| A16C C124A | 0.87 |
| A18U C20U U87G | -2.42 |
| G17U C88U G127C | -3.89 |
| A18C G63A U78G | -5.52 |
| G17U A43G G57U | -4.19 |
| A18C U87G U132A | -2.91 |
| C15U G52A A91G | -2.95 |
| A16G G65U C73G C89A C123A | -7.69 |
